The results in this text go back to publication PMC9996972.

The target of this assay is αVβ3 integrin (rat (endogenous in primary astrocytes)) (UniProt Q8R2H2).
Chain of UniProt Q8R2H2 (Q8R2H2 whole entry, looked up): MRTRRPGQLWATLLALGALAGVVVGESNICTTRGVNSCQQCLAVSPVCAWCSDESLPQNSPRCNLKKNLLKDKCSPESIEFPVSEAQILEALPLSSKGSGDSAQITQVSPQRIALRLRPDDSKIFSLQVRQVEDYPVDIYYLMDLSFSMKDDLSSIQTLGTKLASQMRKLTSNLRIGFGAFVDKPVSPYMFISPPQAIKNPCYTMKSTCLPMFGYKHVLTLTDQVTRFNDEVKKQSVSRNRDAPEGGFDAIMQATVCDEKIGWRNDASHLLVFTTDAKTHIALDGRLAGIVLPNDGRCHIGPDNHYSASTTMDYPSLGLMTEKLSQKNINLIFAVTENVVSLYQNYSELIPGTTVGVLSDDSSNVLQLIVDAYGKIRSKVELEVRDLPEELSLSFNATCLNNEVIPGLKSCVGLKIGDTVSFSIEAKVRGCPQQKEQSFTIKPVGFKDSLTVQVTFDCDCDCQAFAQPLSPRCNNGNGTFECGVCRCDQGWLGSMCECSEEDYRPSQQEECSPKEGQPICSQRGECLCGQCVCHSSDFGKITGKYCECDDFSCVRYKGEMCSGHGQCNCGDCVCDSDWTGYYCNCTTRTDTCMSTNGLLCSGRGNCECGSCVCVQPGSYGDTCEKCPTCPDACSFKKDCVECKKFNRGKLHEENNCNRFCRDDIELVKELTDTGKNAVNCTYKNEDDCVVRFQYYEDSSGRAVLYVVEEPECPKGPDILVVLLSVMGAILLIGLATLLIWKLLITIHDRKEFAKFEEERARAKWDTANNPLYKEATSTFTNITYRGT

B1: Thy-1-Fc fusion protein (Fc fusion)
chain: QKVTSLTACLVNQNLRLDCRHENNTKDNSIQHEFSLTREKRKHVLSGTLGIPEHTYRSRVTLSNQPYIKVLTLANFTTKDEGDYFCELQVSGANPMSSNKSISVYRDKLVKC
Turning to B1, the wound closure (migration) of primary astrocytes pretreated with Hp OMVs (2.5 µg/ml, 12 h), then stimulated with Thy-1-Fc/Protein-A for 24 h amounted to 25% and the wound closure (migration) of primary astrocytes pretreated with TNF (10 ng/ml, 48 h), then stimulated with Thy-1-Fc/Protein-A for 24 h is 10%.
